This test addresses humanized Nme2Cas9 expressed in HEK293T cells from a plasmid (Neisseria meningitidis strain De11444 (also printed De10444)). Briefly: cell-based or functional assay.

Regarding AcrIIC4Hpa, the fold decrease in genome editing in HEK293T cells at various ratios of Acr to Cas9 plasmid was determined as 4 fold.

(Values after patent US20250197889A1.)
